Our source for the Kd values is publication PMC5416870, “Lee Hyunah 1 2”.

This series has as its target SOX (alkaline exonuclease) (Kaposi's sarcoma-associated herpesvirus …, UniProt P88925 1-486). Nature of the series: fluorescence polarization anisotropy; FPA with 3'FAM oligonucleotides, single site binding fit (GraphPad PRISM6); buffer, pH and temperature as in cited Bagneris et al., not in material. The conditions noted are these: protein: recombinant. In general terms: Polarisation of emitted light reports the rotation of a fluorescent probe.

B1: dsUN51 (dsRNA)
RNA 1: GGCCAUCCUGUUUUUUUCCCUUUUUUUUUUUCUUUUUUUUUUUUUUUUUUU
RNA 2: AAAAAAAAAAAAAAAAAAAAAAGAAAAAAAAAAAGGGAAAAAAACUGGAUGGCC
The term Kd denotes the concentration at which binding is half-saturated. For the molecule B1, for the setting “label: 3'FAM (strand 1), duplex, as printed has one U-U mismatch and second strand about 3 nt longer (5' overhang)”, the Kd is approximately 73 µM.

B2: GFP51 (structured_RNA)
RNA: UACGGCAAGCUGACCCUGAAGUUCAUCUGCACCACCGGCAAGCUGCCCGUG
Consider B2, for which the Kd (label: 3'FAM, stem loop with UGAAG motif) stood at 5 µM.
For GAUCUGAGCCAUUGAAGCAAGCUUCCAGAUC (structured_RNA) [K2-31], the Kd (label: 3'FAM, hairpin) turned out to be 49 µM.

B3: HBB58 (structured_RNA)
RNA: AGGUGAAGGCUCAUGGCAAGAAAGUGCUCGGUGCCUUUAGUGAUGGCCUGGCUCACCU
Regarding B3, the Kd (label: 3'FAM, bulge) is 42 µM.
